# B1: GST-PI3KC2β-RBD (aa 368-463) (domain or fragment, UniProt O00750 368-463, looked up)
# chain: SPEHLGDEVNLKVTVLCDRLQEALTFTCNCSSTVDLLIYQTLCYTHDDLRNVDVGDFVLKPCGLEEFLQNKHALGSHEYIQYCRKFDIDIRLQLME
# notes: also called RBD of PI3KC2β; source: E. coli BL21 (DE3), purified on Glutathione Sepharose beads
# Target: T1, Ras (aa 1-166), bacterially expressed and purified (H-Ras) (UniProt P01112 1-166)
# T1 construct: H-Ras aa 1-166 (all Ras constructs were the H-Ras isoform); Used loaded with GDP, loaded with GTPγS, or nucleotide-free (incubated with EDTA without added nucleotide); the nucleotide state is told by the assay; also called Ras 1-166; Ras-GDP; source: E. coli BL21 (pQlink Ras 1-166), purified on nickel beads, His tag cleaved with TEV protease
# Test: pull-down; nucleotide-free Ras: 250 nM Ras with 850 nM GST protein on glutathione beads in Loading Buffer (15 mM EDTA, 5 mM MgCl2), 30 min at 30°C, no added nucleotide
# Conditions: both partners purified
binder,measurement,value
B1,binding result,binds
